From paper PMC3974974 come the findings set out here.

Assay in all cases: SPR; SIRPα variants immobilized via a biotin tag on a streptavidin-coated CM5 chip, BIAcore 3000, 37 °C; dilutions of soluble monomeric CD47 (0.05 to 25.7 μM) injected; KD from equilibrium binding; purification of the variants from 293T not told
For assay [1], the target named is SIRPα variant v2, three Ig superfamily domains linked to rat CD4d3 and -4 and a biotinylation sequence (human).
Assay [2] has as its target SIRPα variant v10, three Ig superfamily domains linked to rat CD4d3 and -4 and a biotinylation sequence (human).
The target in assay [3] is SIRPα variant v5, three Ig superfamily domains linked to rat CD4d3 and -4 and a biotinylation sequence (human).
The target in assay [4] is SIRPα variant v1, three Ig superfamily domains linked to rat CD4d3 and -4 and a biotinylation sequence (human).
For assay [5], the target named is SIRPα variant v7, three Ig superfamily domains linked to rat CD4d3 and -4 and a biotinylation sequence (human).
Chain of SIRPα variant v7, three Ig superfamily domains linked to rat CD4d3 and -4 and a biotinylation sequence (human) (P78324 31-504, stated change not applied): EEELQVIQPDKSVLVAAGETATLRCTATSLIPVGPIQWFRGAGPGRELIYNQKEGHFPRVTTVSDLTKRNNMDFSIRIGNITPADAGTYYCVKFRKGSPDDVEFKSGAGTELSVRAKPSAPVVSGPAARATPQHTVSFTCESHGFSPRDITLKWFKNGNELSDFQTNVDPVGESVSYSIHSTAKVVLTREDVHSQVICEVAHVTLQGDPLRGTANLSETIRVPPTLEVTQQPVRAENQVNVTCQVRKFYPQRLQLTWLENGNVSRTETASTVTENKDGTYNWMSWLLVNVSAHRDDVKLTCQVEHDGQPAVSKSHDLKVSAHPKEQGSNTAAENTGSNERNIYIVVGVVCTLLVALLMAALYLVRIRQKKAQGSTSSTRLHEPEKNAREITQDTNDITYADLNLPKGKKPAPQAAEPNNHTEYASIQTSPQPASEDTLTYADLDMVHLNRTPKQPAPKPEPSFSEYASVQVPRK

Chain of SIRPα variant v5, three Ig superfamily domains linked to rat CD4d3 and -4 and a biotinylation sequence (human) (P78324 31-504, stated change not applied): as above

“Recombinant CD47 Ig superfamily domain (from UniProt Q08722 19-136) (domain or fragment)”: the Kd in assay [1] stood at 640 nM; in assay [2], 670 nM; in assay [3], 780 nM; in assay [4] it was 740 nM; in assay [5], 650 nM.
